The text below walks through data of publication PMC2196413 (The Journal of Cell Biology, 2001).

The assay addresses T1, GST fusion protein with the cytoplasmic domain of JAM (human, UniProt Q9Y624 260-299).
T1 chain (looked up): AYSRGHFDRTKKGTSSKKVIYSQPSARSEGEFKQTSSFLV
The assay is described as follows: pull-down.

B1: MBP-PDZ1/2/3–PAR-3 (domain or fragment)
chain: MVKLVQVPNDGGPLGIHVVPFSARGGRTLGLLVKRLEKGGKAEQENLFHENDCIVRINDGDLRNRRFEQAQHMFRQAMRARVIWFHVVPAANKEQYEQLSQREMNNYSPGRFSPDSHCVANRSVANNAPQALPRAPRLSQPPEQLDAHPRLPHSAHASTKPPTAPALAPPNVLSTSVGSVYNTKRVGKRLNIQLKKGTEGLGFSITSRDVTIGGSAPIYVKNILPRGAAIQDGRLKAGDRLIEVNGVDLAGKSQEEVVSLLRSTKMEGTVSLLVFRQEEAFHPREMNAEPSQMQSPKETKAEDEDIVLTPDGTREFLTFEVPLNDSGSAGLGVSVKGNRSKENHADLGIFVKSIINGGAASKDGRLRVNDQLIAVNGESLLGKANQEAMETLRRSMSTEGNKRGMIQ
One may read the Kd as the concentration at which binding is half-saturated. A low value points to tighter binding. As for B1, the affinity, expressed as Kd, was 75 nM.

B2: MBP fusion protein with NH2-terminal half of ZO-1 (domain or fragment)
chain: MSARAAAAKSTAMEETAIWEQHTVTLHRAPGFGFGIAISGGRDNPHFQSGETSIVISDVLKGGPAEGQLQENDRVAMVNGVSMDNVEHAFAVQQLRKSGKNAKITIRRKKKVQIPVSHPDPEPVSDNEDDSYDEEVHDPRAGRGALANRRSEKSWARDRSASRERSLSPRSDRRSVASSQPAKPTKVTLVKSRKNEEYGLRLASHIFVKEISQDSLAARDGNIQEGDVVLKINGTVTENMSLTDAKTLIERSKGKLKMVVQRDERATLLNVPDLSDSIHSANASERDDISEIQSLASDHSGRSHDRPPRRSQSRSPDQRSEPSDHSTQSPQQPSNGSLRSREEERMSKPGAISTPVKHVDDHPPKAVEEVTVEKNEKQTPTLPEPKPVYAQVGQPDVDLPVSPSDGALPNSAHEDGILRPSMKLVKFRKGDSVGLRLAGGNDVGIFVAGVLEDSPAAKEGLEEGDQILRVNNVDFTNIIREEAVLFLLDLPKGEEVTILAQKKKDVYRRIVESDVGDSFYIRTHFEYEKESPYGLSFNKGEVFRVVDTLYNGKLGSWLAIRIGKNHKEVERGIIPNKNRAEQLASVQYTLPKTAGGDRADFWRFRGLRSSKRNLRKSREDLSAQPVQTKFPAYERVVLREAGFLRPVTIFGPIADVAREKLAREEPDIYQIAKSEPRDAGTDHRSSGIIRLHTIKQIIDQDKHALLDVTPNAVDRLNYAQWYPIVVFLNPDSKQGVKTMRMRLCPESRKSARKLYERSHKLRKNNHHLFTTTINLNSMNDGWYGALKEAIQQQQNQLVWVSEGKADGATSDDLDLHDDRLSYLSAPGSEYSMYSTDSRHTSDYEDTDTEGGAYTDQELDETL
For the molecule B2, the Kd is 110 nM.
